Measured values reported in patent US20260234270A1, “METHODS FOR TREATING CONDITIONS USING ANTI-NMDA RECEPTOR ANTIBODIES” (Lankenau Institute for Medical Research, priority 2022, published 2026).
Entries after “also recorded” stand apart in the source; their conditions may differ.

B1: 1D1: monoclonal human anti-NMDAR (GluN1) antibody; variable heavy chain SEQ ID NO: 5, light chain SEQ ID NO: 7 (antibody, listed as Mus musculus, listed as Homo sapiens, V domains shown)
VH: LVQLVESGGGVVQSGRSLRLSCAASGFAFHTFTIHWVRQAPGKGLDWVTAIYFDGTKKYYADSVKGRFTVSRDNSKNTVYLQMNGLRGEDTAVYYCARARYSYGLSFDYWGQGTPVTVSS
VL: QSVVTQPPSVSAAPGQKVTISCSASSSYLGSNYVSWYQQLPGTAPKLLIYDNNKRSSGISDRFSGSKSGTSATLDITGLQTGDEADYYCGAWDSSLSVVVFGGGTKLTVL
B2: 2G6: monoclonal human anti-NMDAR (GluN1) antibody; variable heavy chain SEQ ID NO: 9, light chain SEQ ID NO: 11 (antibody, listed as Mus musculus, listed as Homo sapiens, V domains shown)
VH: QVQLQESGGGVVQPGRSLRLSCAASGFSFNAFAMHWVRQAPGKGLEWVARISHYGSDDYYADSVKGRFTISRDNSQNTLFLQMNSLKAEDTGVYYCWRGFTLVRGVISRNPINRFSGMDVWGQGTTVTVS
VL: SYELMQPPSVSVSPGQTARITCSGDALPKKYAYWYQQKSGQAPILVIYEDNKRPSGIPERFSGSSSGTMATLTISGAQVEDEADYFCYSTDSSGNHGVFGGGTKLTVL
B3: 5F5: monoclonal human anti-NMDAR (GluN1) antibody; variable heavy chain SEQ ID NO: 1, light chain SEQ ID NO: 3; chimeric form in Examples 5-8 (antibody, listed as Mus musculus, listed as Homo sapiens, V domains shown)
VH: QVQLVESGGGVVRPGGSLRLSCAASGFTFSTYSLHWVRQAPGKGLEWVGVILYDGSKKYYADSVRGRFTISRDNSKSTLNLDMSSLRPDDTAVYYCARDPIAVAPRPSGMVPQGFDYWGQGTLVTVSS
VL: QSVVTQPPSASGTPGQRVTISCSGSSSNIGRNFVFWYRQLPGTAPKVLIYKNIQRPSGVPDRISGSRSGSSASLAISGLRSEDEADYYCASWDDSLSGVVFGGGTKLTVL

How the values were obtained:
[1] = system: tinnitus; details: intratympanic injection; cited from earlier work
[2] = system: retinal cells; details: glaucoma, elevated homocysteine; cited from earlier work
[3] = system: monkey model of experimental glaucoma; details: cited from earlier work
[4] = system: streptozotocin-induced diabetic mouse model; details: cited from earlier work
[5] = system: amino terminal domain of GluN1; assay: Competitive binding assay, Whole Cell ELISA with HEK293T-ATD cells; details: for Competition of 1D1 with mixed 2G6 and 5F5 mAbs for binding to NMDAR ATD: experiments similar to Example 2; for Binding of one biotinylated mAb in the presence of increasing concentrations of the other mAb (2G6 versus 5F5): HEK293T-ATD cells, competitor 50 to 0.2 μg/mL, biotinylated mAb 5 μg/mL
Source text: We assessed the binding epitopes of the 2G6 and 5F5 mAbs. We tested whether they bind overlapping epitopes on GluN1, using a competitive binding assay with HEK293T-ATD cells, which express the amino terminal domain of GluN1. Sharma, R., Al-Saleem, F. H., Panzer, J., Lee, J., Puligedda, R. D., Felicori, L. F., Kattala, C. D., Rattelle, A. J., Ippolito, G., Cox, R. H., Lynch, D. R. and Dessain, S. K. (2018), Monoclonal antibodies from a patient with anti-NMDA receptor encephalitis. Ann Clin Transl Neurol, 5:935-951, which is incorporated herein by reference.
HEK293T-ATD cells (10^5 cells/well) were tested in a Whole Cell ELISA with luminescent detection method. We biotinylated the 5F5 and 2G6 or 5F5 using the EZ-Link™ Hydrazide-Biotin kit (Thermo Fisher), then generated dilution series of 2G6 or 5F5 (50 μg/mL to 0.2 μg/mL) and added to them the plate for 1 h at 37° C., followed by three washes with PBST. We then added the biotinylated 5F5 or 2G6 mAbs at 5 μg/mL, or PBS, and incubated for 1 h at 37° C. followed by three washes with PBST. The Pierce Streptavidin Poly-HRP substrate (Thermo Fisher) was added at 1:2000 dilution and incubated for 1 h at 37° C. This was followed by SuperSignal ELISA Femto Substrate, (1:1 ratio) (Thermo Fisher) and relative luminescence values were measured using the Synergy II plate reader. Duplicate binding curves were plotted and the linear portions were used for analysis using Excel.
We measured binding of one mAb, biotinylated, in the presence of increasing concentrations of the other.
Experiments similar to those done in Example 2 were used to test whether the 1D1 binds a site on the NMDAR ATD that overlaps 2G6 and 5F5. In these experiments, 1D1 binding was tested in competition with mixed 2G6 and 5F5 mAbs.

[6] = target: NMDAR GluN1 antigen (Mus musculus, UniProt P35438); assay: Immunofluorescence staining of mouse retinas (normoxic; oxygen induced retinopathy model); format: binding; details: chimeric antibodies
[7] = target: T1, NMDAR GluN1 epitopes (Mus musculus, UniProt P35438); assay: Antibody binding in mouse retina, model of retinitis pigmentosa
T1 construct: from tissue; host or cells: mouse retina, model of retinitis pigmentosa
Source text: Left panels show DAPI staining, middle panels show antibody staining, right antibodies show merged imaging.

[8] = system: oxygen induced retinopathy (OIR) in mice; assay: Mouse oxygen induced retinopathy (OIR) model, hyperoxia induced hemorrhage; format: in vivo; details: hyperoxia P7 to P12; eye injected at P12; other eye PBS
Method: Neonatal mice were exposed to hyperoxia (75% oxygen) from postnatal day 7 (P7) to P12, and then returned to room air. Upon return to room temperature, at P12, the eye on the right was injected with 5F5 antibody against NMDAR, while the left eye in the figure was injected with PBS.
We next examined the potential effects of the NMDAR antibodies on pathological retinal neovascularization. We used the well characterized model of oxygen induced retinopathy (OIR) in mice. In this model, neonatal mice are exposed to hyperoxia (75% oxygen) from postnatal day 7 (P7) to P12, and then returned to room air. This approach, induces pathological neovascularization in the retina. In FIGS. 3A and 3B, a comparison is shown between two eyes of a mouse exposed to hyperoxia. Upon return to room temperature, at P12, the eye in FIG. 3B was injected with 5F5 antibody against NMDAR, while the eye in FIG. 3A was injected with PBS. […] This is a wholly unexpected finding.

[9] = hyperoxic conditions (75% oxygen P7 to P12, oxygen induced retinopathy model)

| Molecule | Competition of 1D1 with mixed 2G6 and 5F5 mAbs for binding to NMDAR ATD [5] | Antibody binding in mouse retina [6, 9] | Antibody binding in mouse retina ([6]; normoxic conditions) | Binding of one biotinylated mAb in the presence of increasing concentrations of the other mAb (2G6 versus 5F5) [5] | Antibody binding in mouse retina (epitope expression) [7] | other results |
| --- | --- | --- | --- | --- | --- | --- |
| CN[C@]1(c2ccccc2Cl)CCCCC1=O [Esketamine] | – | – | – | – | – | Activity in treatment of tinnitus [1]: has shown activity in treatment of tinnitus |
| C[C@]12N[C@H](Cc3ccccc31)c1ccccc12 [MK-801] | – | – | – | – | – | Homocysteine toxicity to retinal cells via NMDAR [2]: inhibited |
| CC12CC3CC(C)(C1)CC(N)(C3)C2 [Memantine] | – | – | – | – | – | Retinal damage [3]: reduced retinal damage; Retinal toxicity [4]: reduce retinal toxicity |
| B1 | not inhibited by 2G6 and 5F5 binding | expressed in the mouse retina; also recorded: immunoreactive with the outer segment of the photoreceptors as well as the choriocapillaris layers of the mouse retina; also recorded: show binding in outer segments of mouse retina | None of the anti-NMDAR antibodies or the control antibody bound to mouse retina | – | – | – |
| B2 | not inhibited by 1D1 | expressed in the mouse retina; also recorded: immunoreactive with the outer segment of the photoreceptors as well as the choriocapillaris layers of the mouse retina; also recorded: show binding in outer segments of mouse retina | None of the anti-NMDAR antibodies or the control antibody bound to mouse retina | Bind Different Sites on the NMDAR | expressed in the mouse retina | – |
| B3 | not inhibited by 1D1 | shows staining; also recorded: show binding in outer segments of mouse retina | None of the anti-NMDAR antibodies or the control antibody bound to mouse retina | Bind Different Sites on the NMDAR | expressed in the mouse retina | Antibody binding in mouse retina ([6]; hyperoxic conditions (75% oxygen P7 to P12, oxygen induced retinopathy model), listed as 5G5): immunoreactive with the outer segment of the photoreceptors as well as the choriocapillaris layers of the mouse retina; Retinal bleeding / pathological neovascularization of the treated eye [8]: Prevents Hyperoxia Induced Hemorrhage; also recorded: the treated eye shows no bleeding |
